# Target: T1, human MU-1 Ig fusion protein (human, UniProt Q9HBE5 20-235)
# T1 construct: also called MUFc; IL-21R; not shown: Ig part of the fusion protein
# Experiment: Biacore, MU-1 Ig fusion protein immobilized on chip
# Description: Both human and murine Ig fusion proteins were constructed and immobilized on Biacore chips in an effort to identify the ligand for MU-1. A variety of cell culture conditioned media as well as a panel of known cytokines were evaluated for binding to MU-1. Some cytokines were also tested in combination with other receptor chains in the family to consider the possibility that MU-1 may require a second receptor chain for ligand binding. The following cytokines were tested and found to be negative for MU-1 binding: mIL-2, hIL-2, hIL-15, mIL-7, TSLP, TSLP+IL-7, TSLP+IL-7R, TSLP+IL-7g, TSLP+IL-2, TSLP+IL-2+IL-2Rbeta, IL2-Rbeta, IL-2Rgamma, IL-7R, IL-2+IL-2Rbeta, IL-2+IL-2Rgamma, IL-15+IL-2Rbeta, IL-15+IL-2Rgamma, IL-7+IL-2Rgamma, IL-2+IL-7R, IL-15+IL-7R, IL-7+IL-7R. Known receptors have been immobilized as well and tested for MUFc binding with negative results. IL-15 will bind to IL-2Rb but not IL-2Rg or MUFc.
# T1 sequence (Q9HBE5 20-235): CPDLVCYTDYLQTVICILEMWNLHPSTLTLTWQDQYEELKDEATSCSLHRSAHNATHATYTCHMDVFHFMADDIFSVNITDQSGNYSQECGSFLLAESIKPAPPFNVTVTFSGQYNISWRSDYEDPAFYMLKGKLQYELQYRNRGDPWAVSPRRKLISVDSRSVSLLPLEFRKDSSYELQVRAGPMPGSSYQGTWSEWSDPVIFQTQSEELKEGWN
binder,measurement,value
"mIL-7 (ligand, murine, UniProt P10168 26-154, looked up) ECHIKDKEGKAYESVLMISIDELDKMTGTDSNCPNNEPNFFRKHVCDDTKEAAFLNRAARKLKQFLKMNISEEFNVHLLTVSQGTQTLVNCTSKEEKNVKEQKKNDACFLKRLLREIKTCWNKILKGSI",binding result,no binding
"mIL-2 (ligand, murine, UniProt P04351 21-169, looked up) APTSSSTSSSTAEAQQQQQQQQQQQQHLEQLLMDLQELLSRMENYRNLKLPRMLTFKFYLPKQATELKDLQCLEDELGPLRHVLDLTQSKSFQLEDAENFISNIRVTVVKLKGSDNTFECQFDDESATVVDFLRRWIAFCQSIISTSPQ",binding result,no binding

# From patent publication US20080241098A1 (Pfizer, published 2008)
